Reference: patent publication US20220387586A1 (Hoffmann-La Roche, published 2022)

How the values were obtained:
[1] = target: T1, biotinylated PD1-ECD-AviHis (human, UniProt Q15116 25-170, biotinylated); experiment: PD-L1 replacing ELISA on coated PD1-ECD-AviHis; competitor PD-L1 Fc chimera
T1 construct: also called huPD1; hu PD1; not shown: Avi-His tag
Description: (§1) After washing (3×90 μl/well with PBST-buffer) 25 μl/well goat-anti-human H+L-POD (JIR, 109-036-088) was added in 1:1000 dilution and incubated at RT for 1 h on shaker. After washing (3×90 μl/well with PBST-buffer) 25 μl/well TMB substrate (Roche, 11835033001) was added and incubated until OD 2-3. Measurement took place at 370/492 nm.

[2] = target: T1, biotinylated PD1-ECD-AviHis; experiment: ELISA on coated biotinylated PD1-ECD-AviHis
Description: as §1, with “JIR109-036-088)/Sheep-anti-mouse-POD (GE Healthcare; NA9310)” for “109-036-088)”, “1:2000/1:1000” for “1:1000”, “(Roche Catalogue No.” for “(Roche,”

[3] = target: T1, biotinylated PD1-ECD-AviHis; experiment: PD-L2 replacing ELISA on coated PD1-ECD-AviHis; competitor PD-L2 Fc chimera
Description: as §1, with “1:2000” for “1:1000”, “TMB (tetramethylbenzidine)” for “TMB”, “#11835033001)” for “11835033001)”

[4] = target: T2, biotinylated cynoPD1-ECD-Biotin (cynomolgus, UniProt B0LAJ3 25-170, biotinylated; the site and any Avi or His tag are not stated in the passages shown); experiment: ELISA on coated cynoPD1-ECD-Biotin
T2 construct: also called cyPD1
Description: as §1, with “JIR109-036-088)” for “109-036-088)”

T1 sequence (Q15116 25-170): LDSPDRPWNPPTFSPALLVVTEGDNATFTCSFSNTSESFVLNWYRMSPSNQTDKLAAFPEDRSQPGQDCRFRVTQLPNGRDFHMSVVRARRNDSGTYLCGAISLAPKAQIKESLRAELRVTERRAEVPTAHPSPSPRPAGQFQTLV
T2 sequence (B0LAJ3 entry or part of it limits assumed): as the sequence (Q15116 25-170) above, with D2E, P10A, V19L, T35A, Q75R, T144A counted along it

IC50 [1] [mg/L]	EC50 [2] [mg/L]	IC50 [3] [mg/L]	EC50 [4] [mg/L]	Binder
0.128	0.0179	0.034	0.0098	PD1-0050 (antibody, V domains shown) VH: DVQLQESGPGLVKPSQSLSLTCTVTGYSITSDYAWNWIRQFPGNKLEWMGYITYTGRTSYNPSLKSRISITRDTSKNQFFLQLNSVTTEDTATYYCAREMDYYGSTLDYWGQGTTLTVSS VL: KIVLTQSPASLAVSLRQRATISCRASESVDRYGNSFIHWYQQKPGQPPKVLIYRASNLESGFPARFSGSGSRTDFTLTIDPVEADDAATYYCQQNNEDPYTFGSGTKLEIK
0.225	0.0457	0.089	0.0227	PD1-0069 (antibody, V domains shown, Mouse hybridoma antibody) VH: QVQLQQSGPELVRPGVSVKISCKGSGYTFTDYAMHWVKQSHARTLEWIGVISTYSGDTNYNQKFKDKATMTVDKSSSTAYLELARMTSEDSAIYYCARLGITTGFAYWGQGTLVTVSA VL: DIVLTQSPASLAVSLGQRATISCRASKGVSTSSYSFMHWYQQKPRQPPKLLIKYASYLESGVPARFSGSGSGTDFTLNIHPVEEEDAATYYCHHSREFPWTFGGGTKLEIK

The next lines start with the binder.

Binder	IC50 [1] [mg/L]	EC50 [2] [mg/L]	IC50 [3] [mg/L]	EC50 [4] [mg/L]
PD1-0098 (antibody, V domains shown, Mouse hybridoma antibody) VH: DVQLQESGPGLVKPSQSLSLTCTVTGYSITSDYAWNWIRQFPGDKLEWLGYITYSGFTNYNPSLKSRISISRDTSKNQFFLQLNSVATEDTATYYCARWHGSAPWYFDYWGRGTTLTVSS VL: DVLMTQTPLSLPVSLGDQASISCRSSQNIVHSDGNTYLEWYLQKPGQSPNLLIYKVSRRFSGVPDRFSGSGSGTDFTLKISRVEAEDLGVYYCFQGSHFPLTFGAGTKLELK	0.174	0.0508	0.045	0.0546
PD1-0073 (antibody, V domains shown) VH: EVKLVESGGGLVKPGGSLKLSCAASGFTFSNYGMSWIRQTPEKGLEWVATISGGGRDTYYPDSVKGRFTISRDNVKNNLYLQMSSLRSEDTAFYYCASYYYGIDYWGQGTSVTVSS VL: DIVMTQPHKFMSTSVGDRVRITCKASQDVTTAVAWYQQKPGQSPKLLIYWASTRHTGVPDRFTGSGSGTEFTLTISSVQAEDLALYYCQQHYSIPWTFGGGTKLEIK	0.124	0.0151	0.065	0.0083
PD1-0102 (antibody, V domains shown) VH: DVQLQESGPDLVKPSQSLSLTCTVTGYSITSGYSWHWIRQFPGNKLEWMGFIHSSGDTNYNPSLKSRISFTRDTSKNQFFLQLSSLTDEDTATYYCATYRNWYFDVWGAGTTVTVSS VL: DIVMTQSPSSLTVTAGEKVTMRCKSSQSLLNSGTQKNYLTWYQQKPGQPPKLLIYWASTRESGVPNRFTGSGSGTDFTLTISSVQAEDLSVYYCQSDYTFPLTFGGGTKLELK	> 35.5	0.0342	0.14	0.0527
PD1-0103 (antibody, V domains shown, Mouse hybridoma antibody; also called murine anti-PD1 antibody PD1-0103) VH: EVILVESGGGLVKPGGSLKLSCAASGFSFSSYTMSWVRQTPEKRLDWVATISGGGRDIYYPDSVKGRFTISRDNAKNTLYLEMSSLMSEDTALYYCVLLTGRVYFALDSWGQGTSVTVSS VL: KIVLTQSPASLPVSLGQRATISCRASESVDTSDNSFIHWYQQRPGQSPKLLIYRSSTLESGVPARFSGSGSRTDFTLTIDPVEADDVATYYCQQNYDVPWTFGGGTKLEIK	0.182	0.0337	0.051	0.0369
